Results on 7 molecules are retold here after US20160046707A1 (EISAI R AND D MANAGEMENT, published 2016).

What all share (experiment): cell-based or functional assay
Test [1] has as its target T1, recombinant human CCL20 (R&D Systems, #360-MP-025/CF) (human, UniProt P78556 27-96).
Test [2] has as its target T1, recombinant human CCL20 (R&D Systems, …). This is another data set of the same source.
For test [3] the target is unchanged. This is another data set of the same source.

T1 sequence (P78556 other isoform, or with tags, fused parts or gaps limits assumed): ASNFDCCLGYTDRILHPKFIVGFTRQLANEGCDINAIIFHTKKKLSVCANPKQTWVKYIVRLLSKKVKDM

B1: humanized anti-human CCL20 antibody 36LK3/42HKK1 (antibody, human IgG1, kappa, V domains shown)
VH: QVQLVQSGAEVKKPGASVKVSCKASGYTFTSYWMHWVRQAPGQGLEWMGLIDPSDKYTNYNQKFKGRVTMTRDTSTSTVYMELSSLRSEDTAVYYCARGNYGVDYGMDYWGQGTLVTVSS
VL: DIQMTQSPSSLSASVGDRVTITCGASENIYGALNWYQRKPGKAPKLLIYGATNLADGVPSRFSGSGSGRDYTLTISSLQPEDFATYYCQNVLITPYTFGQGTKLEIKR
B1: in test [1], the “IC95 of chemotaxis inhibition” value came out at 9.02 nM. The “IC50 of chemotaxis inhibition” value in test [2] is 1.36 nM. In addition, the “IC90 of chemotaxis inhibition” value in test [3] is 4.86 nM.

B2: humanized anti-human CCL20 antibody 36LK3/36HKK3 (antibody, human IgG1, kappa, V domains shown)
VH: QVQLVQSGAEVKKPGASVKVSCKASGYTFTNYWMHWVRQAPGQGLEWMGVIDPSDSYTTYNQKFKGKATLTVDTSTSTAYMELSSLRSEDTAVYYCTRGNYGVDYAMDYWGQGTLVTVSS
VL: DIQMTQSPSSLSASVGDRVTITCGASENIYGALNWYQRKPGKAPKLLIYGATNLADGVPSRFSGSGSGRDYTLTISSLQPEDFATYYCQNVLITPYTFGQGTKLEIKR
For the molecule B2, in test [2], the “IC50 of chemotaxis inhibition (block of heavy chains 36HKK1 to 36HKK3)” value turned out to be 1.31 nM and the “IC50 of chemotaxis inhibition (block of heavy chains 36HKK3, 36HC2, 36HC3)” value came out at 1.21 nM.

B3: humanized anti-human CCL20 antibody 36LK3/42HKK3 (antibody, human IgG1, kappa, V domains shown)
VH: QVQLVQSGAEVKKPGASVKVSCKASGYTFTSYWMHWVRQAPGQGLEWMGLIDPSDKYTNYNQKFKGKATLTVDTSTSTAYMELSSLRSEDTAVYYCTRGNYGVDYGMDYWGQGTLVTVSS
VL: DIQMTQSPSSLSASVGDRVTITCGASENIYGALNWYQRKPGKAPKLLIYGATNLADGVPSRFSGSGSGRDYTLTISSLQPEDFATYYCQNVLITPYTFGQGTKLEIKR
In the case of B3, in test [1], the “IC95 of chemotaxis inhibition” value came out at 10.8 nM. Further, the “IC50 of chemotaxis inhibition” value in test [2] came to 1.47 nM. In addition, in test [3], the “IC90 of chemotaxis inhibition” value came to 5.65 nM.

B4: 36LC3/36HC3 (antibody, human IgG1, kappa, V domains shown)
VH: QVQLVQSGAEVKKPGASVKVSCKASGYTFTNYWMHWVKQAPGQGLEWIGVIDPSDSYTTYNQKFKGKATMTRDTSTSTVYMELSSLRSEDTAVYYCTRGNYGVDYAMDYWGQGTSVTVSS
VL: DIQMTQSPSSLSASVGDRVTITCRASENIYGALNWYQQKPGKAPKLLIYGATNLADGVPSRFSGSGSGRQYSLTISSLQPEDFATYYCQNVLITPYTFGGGTKLEIKR
On to B4, for which the “IC50 of chemotaxis inhibition” value in test [2] was determined as 1.33 nM. In addition, the “IC90 of chemotaxis inhibition” value in test [3] is 6.34 nM.

B5: humanized anti-human CCL20 antibody 36LK3/42HKK2 (antibody, human IgG1, kappa, V domains shown)
VH: QVQLVQSGAEVKKPGASVKVSCKASGYTFTSYWMHWVRQAPGQGLEWMGLIDPSDKYTNYNQKFKGRVTLTVDTSTSTVYMELSSLRSEDTAVYYCTRGNYGVDYGMDYWGQGTLVTVSS
VL: DIQMTQSPSSLSASVGDRVTITCGASENIYGALNWYQRKPGKAPKLLIYGATNLADGVPSRFSGSGSGRDYTLTISSLQPEDFATYYCQNVLITPYTFGQGTKLEIKR
Turning to B5, the “IC95 of chemotaxis inhibition” value in test [1] worked out at 15.3 nM. In addition, the “IC50 of chemotaxis inhibition” value in test [2] is 1.66 nM. Also, the “IC90 of chemotaxis inhibition” value in test [3] turned out to be 6.54 nM.

B6: humanized anti-human CCL20 antibody 36LC3/36HKK3 (antibody, human IgG1, kappa, V domains shown)
VH: QVQLVQSGAEVKKPGASVKVSCKASGYTFTNYWMHWVRQAPGQGLEWMGVIDPSDSYTTYNQKFKGKATLTVDTSTSTAYMELSSLRSEDTAVYYCTRGNYGVDYAMDYWGQGTLVTVSS
VL: DIQMTQSPSSLSASVGDRVTITCRASENIYGALNWYQQKPGKAPKLLIYGATNLADGVPSRFSGSGSGRQYSLTISSLQPEDFATYYCQNVLITPYTFGGGTKLEIKR
Consider B6, for which the “IC95 of chemotaxis inhibition” value in test [1] stood at 9.75 nM. Also, the “IC50 of chemotaxis inhibition” value in test [2] worked out at 1.26 nM. The “IC90 of chemotaxis inhibition” value in test [3] stood at 4.33 nM.

B7: humanized anti-human CCL20 antibody 36LK3/36HC3 (antibody, human IgG1, kappa, V domains shown)
VH: QVQLVQSGAEVKKPGASVKVSCKASGYTFTNYWMHWVKQAPGQGLEWIGVIDPSDSYTTYNQKFKGKATMTRDTSTSTVYMELSSLRSEDTAVYYCTRGNYGVDYAMDYWGQGTSVTVSS
VL: DIQMTQSPSSLSASVGDRVTITCGASENIYGALNWYQRKPGKAPKLLIYGATNLADGVPSRFSGSGSGRDYTLTISSLQPEDFATYYCQNVLITPYTFGQGTKLEIKR
As for B7, the “IC95 of chemotaxis inhibition” value in test [1] was 8.38 nM. For the same molecule, in test [2], the “IC50 of chemotaxis inhibition” value came to 1.13 nM. For the same molecule, the “IC90 of chemotaxis inhibition” value in test [3] worked out at 4.6 nM.
